According to patent US20230038638A1, “COMPLEMENT FACTOR I-RELATED COMPOSITIONS AND METHODS” (published 2023):

Key:
[1] = biological target: T1, human C4b (human) (UniProt P0C0L5)
T1 sequence: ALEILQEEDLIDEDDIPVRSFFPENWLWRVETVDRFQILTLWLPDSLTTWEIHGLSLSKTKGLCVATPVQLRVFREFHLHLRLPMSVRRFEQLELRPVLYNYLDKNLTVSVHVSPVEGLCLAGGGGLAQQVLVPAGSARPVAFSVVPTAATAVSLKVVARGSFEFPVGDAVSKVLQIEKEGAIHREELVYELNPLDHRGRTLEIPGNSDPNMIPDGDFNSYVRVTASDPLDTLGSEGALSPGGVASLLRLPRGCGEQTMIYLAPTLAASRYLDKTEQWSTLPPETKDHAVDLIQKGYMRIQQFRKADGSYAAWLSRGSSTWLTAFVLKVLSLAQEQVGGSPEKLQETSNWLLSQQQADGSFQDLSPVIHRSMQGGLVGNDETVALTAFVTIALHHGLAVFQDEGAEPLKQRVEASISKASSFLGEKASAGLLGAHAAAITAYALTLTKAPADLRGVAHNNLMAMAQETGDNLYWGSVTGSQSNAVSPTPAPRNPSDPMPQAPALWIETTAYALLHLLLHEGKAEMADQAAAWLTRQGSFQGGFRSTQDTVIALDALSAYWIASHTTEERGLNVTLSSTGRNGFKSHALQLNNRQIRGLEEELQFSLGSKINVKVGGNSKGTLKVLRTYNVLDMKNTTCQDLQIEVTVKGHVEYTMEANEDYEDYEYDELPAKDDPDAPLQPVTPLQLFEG

[2] = biological target: soluble human C3b (human) (UniProt P01024)

Substance	C4b Screen Ref Fold (fold vs CFI-HSA wild type) [1]	iC3b Screen Ref Fold (fold vs CFI-HSA wild type) [2]	C4b Screen Ref Fold (fold of CFI-HSA wild type) [1]	iC3b Screen Ref Fold (fold of CFI-HSA wild type) [2]
CFI-HSA A502G (enzyme)	0.06	0.09	–	–
CFI-HSA R365Q (enzyme)	0.18	0.64	–	–
CFI-HSA Y408L; E457G; E461Q; R462K; N531G; R557A (enzyme)	3.22	1.29	–	–
CFI-HSA variant K326A-R327A (enzyme)	0.2	0.37	–	–
CFI-HSA variant D506V (enzyme)	0.06	0	–	–
CFI-HSA K423A (enzyme)	0.11	0.23	–	–
CFI-HSA R365F (enzyme)	0.23	0.64	–	–
CFI-HSA P538G (enzyme)	0.07	-0.01	–	–
CFI-HSA variant Δ(K1-P305); N531G; P535A (enzyme)	0.15	0.05	–	–
CFI-HSA K424M (enzyme)	0.33	0.95	–	–
CFI-HSA R557H (enzyme)	2.44	0.11	–	–
CFI-HSA variant P535G; WT; GGSSGG (SEQ ID NO: 6); CR1(ccp15-17) (from UniProt P17927) (enzyme)	–	–	2.73	0
CFI-HSA variant Δ(K1-P305); N531G (enzyme)	0.02	0.03	–	–
CFI-HSA Y553Q (enzyme)	0.77	1.09	–	–
CFI-HSA W528G (enzyme)	0.01	-0.05	–	–
CFI-HSA L76G (enzyme)	0.07	0.5	–	–

Substance	C4b Screen Ref Fold (fold vs CFI-HSA wild type) [1]	iC3b Screen Ref Fold (fold vs CFI-HSA wild type) [2]	C4b Screen Ref Fold (fold of CFI-HSA wild type) [1]	iC3b Screen Ref Fold (fold of CFI-HSA wild type) [2]
CFI-HSA variant Y408L; E457G; P535G; N422K (enzyme)	–	–	1.07	1.39
CFI-HSA variant Y408L; P558S (enzyme)	–	–	0.31	0.86
CFI-HSA variant W381K (enzyme)	0	0.02	–	–
CFI-HSA D549Y (enzyme)	0.08	0.42	–	–
CFI-HSA D549A (enzyme)	1.04	0.66	–	–
CFI-HSA N531G; E530Y (enzyme)	3.41	2.48	–	–
CFI-HSA variant Y408L; N531G; P535G; P558S (enzyme)	–	–	1.02	1.28
CFI-HSA Y408L; E457G; E461Q; R462K; N531G; ΔC-term (Δ558-PFISQYNV (SEQ ID NO: 14)-565) (enzyme)	1.67	0.24	–	–
CFI-HSA variant Y553H; V565I (enzyme)	–	–	1.97	1.32
CFI-HSA variant Y553H; V565I; P558S (enzyme)	–	–	1.75	0.46
CFI-HSA variant T495F; Y496L; D497E; S499G; I500K; G533A; K534Q; P535K; E536N; F537K (enzyme)	-0.02	0.02	–	–
CFI-HSA Y408L; D425R; E530Y (enzyme)	1.05	1.95	–	–
CFI-HSA variant H370A (enzyme)	0.37	0.57	–	–
CFI-HSA R557V (enzyme)	2.23	0.21	–	–
CFI-HSA Y408L; N531G; E530Y (enzyme)	2.25	2.11	–	–
CFI-HSA Y553H (enzyme)	1.56	1.11	–	–
